From PMC4114562

Molecular target: rFKBP22 (a recombinant E. coli FKBP22) (Escherichia coli) (UniProt P0A9L3)
Test: cross-linking; glutaraldehyde-mediated chemical cross-linking of rFKBP22 (bound/unbound with rapamycin) at 30°–85°C, analysed by SDS-13.5% PAGE

rFKBP22 (a recombinant E. coli FKBP22) (from UniProt P0A9L3 1-206) (enzyme)
stoichiometry N: 2
